Test results as given in publication doi:10.1101/846337.

What follows are substances tested against F-actin (filamentous actin, purified from chicken breast) (Gallus gallus (chicken)) (UniProt P68139) (assay: co-sedimentation).

Substance	Kd
Human UTRN-ABD (utrophin actin binding domain, amino acids 1-261) (from UniProt P46939 1-261) (domain or fragment)	1.8 µM
UTRN-ABD H29A (from UniProt P46939 1-261) (domain or fragment)	2.8 µM
UTRN-ABD N109A (from UniProt P46939 1-261) (domain or fragment)	55 µM
UTRN-ABD V87D (from UniProt P46939 1-261) (domain or fragment)	> 100 µM
UTRN-ABD I22D (from UniProt P46939 1-261) (domain or fragment)	38 µM
